Data from publication PMC9020658.

Target: UAF (Rrn5-Rrn9-Rrn10-Uaf30-H3-H4);TBP (TATA-box-binding protein) ((budding yeast);(budding yeast)) (UniProt Q02983+P53437+P38204+Q08747+P61830+P02309+P13393)
Experiment: cryo-EM 2.8 A
Settings: 30 mM Hepes-NaOH pH 7.5, 30 mM sodium citrate pH 6.0, 250 mM KCl, 2 mM DTT; filter binding 1 h at 4 C; footprinting on ice, then 2.5 mM MgCl2, 0.5 mM CaCl2 …

GAAAAAAAAAATATACGCTAAGATTTTTGGAGAATAGCTTAAATTGAAGTTTTTCTCGGCGAGAAATACGTAGTTAAGGCAGAGCGACAGAGAGGGCAAAAGAAAATAAAAGTAAGATTTTAGTTTGTAATGGGAGGGGGGGTTTAGTCAT (double strand) [35S rRNA promoter -190/-40 (cryo-EM DNA)]
binding: binds
